Data taken from doi:10.1101/2025.02.08.637281 (bioRxiv, 2025).
Values belong to the binder of their own block, whether it stands above or below them.

How the values were obtained:
[1] = biological target: T1, ASK2, SKP1-like protein of Arabidopsis thaliana (Arabidopsis thaliana, UniProt Q9FHW7 1-171); assay: SEC
T1 sequence (looked up): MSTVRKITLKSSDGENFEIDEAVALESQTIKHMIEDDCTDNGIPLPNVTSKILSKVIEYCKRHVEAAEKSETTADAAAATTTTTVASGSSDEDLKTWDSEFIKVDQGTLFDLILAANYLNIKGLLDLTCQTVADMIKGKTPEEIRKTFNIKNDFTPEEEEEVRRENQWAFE

[2] = biological target: T2, REPRESSOR OF GA1-3 (RGA), full-length, Arabidopsis thaliana DELLA protein (Arabidopsis thaliana, UniProt Q9SLH3 1-587); assay: SEC-MALS
T2 sequence (looked up): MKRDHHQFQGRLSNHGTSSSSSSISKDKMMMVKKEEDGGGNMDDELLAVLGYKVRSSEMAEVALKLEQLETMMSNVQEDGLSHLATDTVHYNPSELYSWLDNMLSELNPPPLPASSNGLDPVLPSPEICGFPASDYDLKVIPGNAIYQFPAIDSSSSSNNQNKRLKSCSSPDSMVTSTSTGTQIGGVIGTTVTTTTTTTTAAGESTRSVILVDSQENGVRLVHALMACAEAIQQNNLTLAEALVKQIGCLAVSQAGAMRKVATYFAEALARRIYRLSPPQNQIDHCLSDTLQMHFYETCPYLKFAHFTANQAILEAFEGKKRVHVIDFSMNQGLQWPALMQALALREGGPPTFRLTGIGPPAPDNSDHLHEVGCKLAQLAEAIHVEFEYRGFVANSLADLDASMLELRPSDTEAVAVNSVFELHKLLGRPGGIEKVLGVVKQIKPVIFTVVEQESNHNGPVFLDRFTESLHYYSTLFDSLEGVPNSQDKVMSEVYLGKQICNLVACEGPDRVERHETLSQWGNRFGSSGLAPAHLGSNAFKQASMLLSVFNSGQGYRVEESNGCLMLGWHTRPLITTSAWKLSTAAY

binding result [1]: binds
B1: SLEEPY 1 (SLY1), F-box protein (natural protein, Arabidopsis thaliana, UniProt Q9STX3 1-151, looked up)
chain: MKRSTTDSDLAGDAHNETNKKMKSTEEEEIGFSNLDENLVYEVLKHVDAKTLAMSSCVSKIWHKTAQDERLWELICTRHWTNIGCGQNQLRSVVLALGGFRRLHSLYLWPLSKPNPRARFGKDELKLTLSLLSIRYYEKMSFTKRPLPESK

binding result [2]: binds
B2: GA … DWARF1A (GID1A), gibberellin receptor, GA3-bound (receptor, Arabidopsis thaliana, UniProt Q9MAA7 1-345, looked up)
chain: MAASDEVNLIESRTVVPLNTWVLISNFKVAYNILRRPDGTFNRHLAEYLDRKVTANANPVDGVFSFDVLIDRRINLLSRVYRPAYADQEQPPSILDLEKPVDGDIVPVILFFHGGSFAHSSANSAIYDTLCRRLVGLCKCVVVSVNYRRAPENPYPCAYDDGWIALNWVNSRSWLKSKKDSKVHIFLAGDSSGGNIAHNVALRAGESGIDVLGNILLNPMFGGNERTESEKSLDGKYFVTVRDRDWYWKAFLPEGEDREHPACNPFSPRGKSLEGVSFPKSLVVVAGLDLIRDWQLAYAEGLKKAGQEVKLMHLEKATVGFYLLPNNNHFHNVMDEISAFVNAEC
